Results from PMC8386461.

What was measured:
Assay in all cases: SPR
[1] = molecular target: Nonglycosylated human basigin ectodomain (BSG-2, E. coli-expressed) (human)
[2] = molecular target: Glycosylated human basigin (BSG-2, mammalian cell-expressed) (human)
[3] = molecular target: Human IgG1 CR3022 antibody (human)
Chain of Human IgG1 CR3022 antibody (human) (heavy, as listed by the source, chain 1 of 2): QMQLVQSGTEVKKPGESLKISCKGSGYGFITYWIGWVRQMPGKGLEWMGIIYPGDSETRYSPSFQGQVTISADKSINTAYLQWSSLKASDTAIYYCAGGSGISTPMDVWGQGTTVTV
Chain of Human IgG1 CR3022 antibody (human) (light, as listed by the source, chain 2 of 2): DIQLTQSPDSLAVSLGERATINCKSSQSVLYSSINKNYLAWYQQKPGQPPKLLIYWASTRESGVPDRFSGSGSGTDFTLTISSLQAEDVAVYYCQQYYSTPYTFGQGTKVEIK

Substance	Kd [1] [nM]	Kd [2] [nM]	Kd [3] [nM]
Plasmodium falciparum reticulocyte-binding protein homolog 5 (recombinant RH5) (from UniProt Q8IFM5 26-526) (ligand)	925	665	–
SARS-CoV-2 spike receptor binding domain (from UniProt P0DTC2 319-541) (domain or fragment)	–	–	190
